The text below walks through data of publication PMC11838199.

The experiment has as its target C12ORF57-FLAG (human) (UniProt Q99622). Kind of experiment: co-IP.
UniProt Q99622, sequence (Q99622 whole entry): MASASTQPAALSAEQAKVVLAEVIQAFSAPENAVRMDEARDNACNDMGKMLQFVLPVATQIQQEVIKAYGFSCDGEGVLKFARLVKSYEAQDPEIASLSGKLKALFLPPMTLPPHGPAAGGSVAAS

On to “CAMK4 lacking the autoinhibitory domain (NAI) (from UniProt Q16566 1-473) (enzyme)”, for which the change in CAMK4 co-precipitated with C12ORF57-FLAG, against wild type CAMK4 is -65.8%.
For the substance “CAMK4 lacking the calmodulin binding domain (NCB) (from UniProt Q16566 1-473) (enzyme)”, the change in CAMK4 co-precipitated with C12ORF57-FLAG, against wild type CAMK4 was -6.13%.
